The record followed here is publication PMC3477848 (Biochemistry, 2012).

Like-named read-outs stand apart in the source and are kept apart here.

Common to all, as to experiment: fluorescence anisotropy
On the technique in general: In fluorescence polarisation assays a small probe gives low polarisation when free and higher when bound to something large.

Series [1] concerns the target T1, Dpo4 (SsoDpo4, Y-family DNA polymerase) (Sulfolobus solfataricus, UniProt Q97W02 1-352).
T1 sequence: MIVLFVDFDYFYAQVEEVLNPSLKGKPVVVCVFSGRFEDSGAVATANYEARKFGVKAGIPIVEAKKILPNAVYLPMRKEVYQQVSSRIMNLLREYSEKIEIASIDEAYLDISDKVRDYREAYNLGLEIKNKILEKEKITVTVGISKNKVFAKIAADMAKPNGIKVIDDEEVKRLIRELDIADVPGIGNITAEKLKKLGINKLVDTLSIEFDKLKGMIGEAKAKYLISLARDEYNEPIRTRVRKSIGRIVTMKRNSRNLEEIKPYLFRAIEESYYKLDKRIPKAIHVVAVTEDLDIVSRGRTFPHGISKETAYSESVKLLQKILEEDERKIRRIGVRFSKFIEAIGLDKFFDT

Series [2] concerns the target T1, Dpo4 (SsoDpo4, Y-family DNA polymerase). This is another data set of the same source.
For series [3], the target named is T2, Dpo1 exo- (SsoDpo1, B-family DNA polymerase) (Sulfolobus solfataricus, UniProt P26811 1-882, D231A;D318A).
T2 sequence: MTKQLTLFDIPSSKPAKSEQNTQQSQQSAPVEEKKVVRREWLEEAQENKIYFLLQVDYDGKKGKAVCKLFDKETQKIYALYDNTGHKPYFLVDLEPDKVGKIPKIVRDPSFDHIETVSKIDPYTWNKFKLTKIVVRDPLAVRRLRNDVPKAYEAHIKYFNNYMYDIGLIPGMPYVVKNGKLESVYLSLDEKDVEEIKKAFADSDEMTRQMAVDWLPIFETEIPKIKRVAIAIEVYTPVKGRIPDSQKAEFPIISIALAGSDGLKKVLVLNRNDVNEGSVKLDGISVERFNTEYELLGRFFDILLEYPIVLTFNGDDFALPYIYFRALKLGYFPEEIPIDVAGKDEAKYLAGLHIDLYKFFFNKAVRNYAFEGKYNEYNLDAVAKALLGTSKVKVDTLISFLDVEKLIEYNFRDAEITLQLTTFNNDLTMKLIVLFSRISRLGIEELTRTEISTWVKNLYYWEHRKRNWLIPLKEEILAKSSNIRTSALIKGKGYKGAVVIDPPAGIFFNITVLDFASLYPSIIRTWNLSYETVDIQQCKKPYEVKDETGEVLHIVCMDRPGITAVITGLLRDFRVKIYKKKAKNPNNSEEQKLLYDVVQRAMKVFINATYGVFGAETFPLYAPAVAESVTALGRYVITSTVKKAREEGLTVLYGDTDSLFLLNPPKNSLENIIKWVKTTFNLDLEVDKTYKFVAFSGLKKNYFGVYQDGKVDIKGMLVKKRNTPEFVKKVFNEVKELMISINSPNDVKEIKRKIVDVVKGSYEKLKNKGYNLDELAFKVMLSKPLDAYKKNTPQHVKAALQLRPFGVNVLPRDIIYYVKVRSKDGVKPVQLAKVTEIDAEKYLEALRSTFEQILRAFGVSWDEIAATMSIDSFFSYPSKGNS

In series [4] the target is T1, Dpo4 (SsoDpo4, Y-family DNA polymerase). This is another data set of the same source.
In series [5] the target is T2, Dpo1 exo- (SsoDpo1, B-family DNA …). The source holds these as a separate data set.
In series [6] the target is T1, Dpo4 (SsoDpo4, Y-family DNA polymerase). The source holds these as a separate data set.
Series [7] deals with T2, Dpo1 exo- (SsoDpo1, B-family DNA …). This is another data set of the same source.
For series [8] the target is unchanged. This is another data set of the same source.

Turning to TTTTTTTTTTCCCGGGCCGGCGTTTCGCCGGCCCGGG (structured_DNA) [37-nt hairpin primer-template, 5'-Cy3], the dissociation constant Kd (usually the free concentration of one partner at which half of the binding sites on the other are occupied at equilibrium, for simple one-to-one binding) was 176 ± 10 nM in series [1]; 214 ± 3 nM in series [2]; 170 ± 23 nM in series [3]; 155 ± 65 nM in series [4]; 97 ± 3 nM in series [5]; 130 ± 4 nM in series [6]. Moreover, the equilibrium dissociation constant (Kd) in series [7] was 144 ± 3 nM; in series [8], 94 ± 1 nM.
